We go through two substances from patent US10564159.

Assay [1] deals with human TSH receptor (wild type), displayed on CHO-Rluc cells (human) (UniProt P16473). Kind of assay: cell-based or functional assay.
The target in assay [2] is chimeric hTSH/rLH-R receptor (RMc4), displayed on CHO-RMc4luc cells (human TSH receptor with a segment of rat LH receptor). Kind of assay: cell-based or functional assay.

Regarding “human follicle stimulating hormone (from UniProt P01215 25-116; P01225 19-129) (ligand)”, in assay [1], the Ratio of Signal/Negative, luciferase reporter, FSH 364 mIU/ml on CHO-Rluc cells turned out to be 0.7 and the luciferase RLU, FSH 364 mIU/ml on CHO-Rluc cells was 728 RLU. In addition, in assay [2], the Ratio of Signal/Negative, luciferase reporter, FSH 364 mIU/ml on CHO-Mc4luc cells was 0.6 and the luciferase RLU, FSH 364 mIU/ml on CHO-RMc4luc cells amounted to 1020 RLU.
As to “human luteinizing hormone (from UniProt P01215 25-116; P01229 21-141) (ligand)”, in assay [1], the Ratio of Signal/Negative, luciferase reporter, LH 455 mIU/ml on CHO-Rluc cells came to 0.8 and the luciferase RLU, LH 455 mIU/ml on CHO-Rluc cells turned out to be 835 RLU. Moreover, in assay [2], the Ratio of Signal/Negative, luciferase reporter, LH 455 mIU/ml on CHO-Mc4luc cells is 0.9 and the luciferase RLU, LH 455 mIU/ml on CHO-RMc4luc cells is 1560 RLU.
